How the values were obtained:
[1] = biological target: T1, WD40 repeat protein 5 truncation mutant lacking residues 1-22 (WDR5ΔN) (UniProt P61964 23-334); test: short-lived events (koff-1), 2 [WDR5]
[2] = biological target: T1, WD40 repeat protein 5 truncation mutant …; test: long-lived events (koff-3), 1 [WDR5]
[3] = biological target: T1, WD40 repeat protein 5 truncation mutant …; test: long-lived events (koff-3), 4 [WDR5]
[4] = biological target: T1, WD40 repeat protein 5 truncation mutant …; test: long-lived events (koff-3), 0.5 [WDR5]
[5] = biological target: T1, WD40 repeat protein 5 truncation mutant …; test: short-lived events (koff-1), 1 [WDR5]
[6] = biological target: T1, WD40 repeat protein 5 truncation mutant …; test: medium-lived events (koff-2), 0.5 [WDR5]
[7] = biological target: T1, WD40 repeat protein 5 truncation mutant …; test: long-lived events (koff-3), event durations
[8] = biological target: T1, WD40 repeat protein 5 truncation mutant …; test: short-lived events (koff-1), 4 [WDR5]
[9] = biological target: T1, WD40 repeat protein 5 truncation mutant …; test: short-lived events (koff-1), event durations
[10] = biological target: T1, WD40 repeat protein 5 truncation mutant …; test: medium-lived events (koff-2), 4 [WDR5]
[11] = biological target: T1, WD40 repeat protein 5 truncation mutant …; test: medium-lived events (koff-2), 2 [WDR5]
[12] = biological target: T1, WD40 repeat protein 5 truncation mutant …; test: medium-lived events (koff-2), 1 [WDR5]
[13] = biological target: T1, WD40 repeat protein 5 truncation mutant …; test: medium-lived events (koff-2), event durations
[14] = biological target: T1, WD40 repeat protein 5 truncation mutant …; test: short-lived events (koff-1), 0.5 [WDR5]
[15] = biological target: T1, WD40 repeat protein 5 truncation mutant …; test: long-lived events (koff-3), 2 [WDR5]
[16] = biological target: T1, WD40 repeat protein 5 truncation mutant …; test: long-lived events (koff-3), 2 [WDR5]; remark: listed apart in the source
[17] = biological target: T1, WD40 repeat protein 5 truncation mutant …; test: long-lived events (koff-3), 4 [WDR5]; remark: listed apart in the source
[18] = biological target: T1, WD40 repeat protein 5 truncation mutant …; test: short-lived events (koff-1), 4 [WDR5]; remark: listed apart in the source
[19] = biological target: T1, WD40 repeat protein 5 truncation mutant …; test: short-lived events (koff-1), 0.5 [WDR5]; remark: listed apart in the source
[20] = biological target: T1, WD40 repeat protein 5 truncation mutant …; test: short-lived events (koff-1), 1 [WDR5]; remark: listed apart in the source
[21] = biological target: T1, WD40 repeat protein 5 truncation mutant …; test: medium-lived events (koff-2), 2 [WDR5]; remark: listed apart in the source
[22] = biological target: T1, WD40 repeat protein 5 truncation mutant …; test: long-lived events (koff-3), 0.5 [WDR5]; remark: listed apart in the source
[23] = biological target: T1, WD40 repeat protein 5 truncation mutant …; test: long-lived events (koff-3), 1 [WDR5]; remark: listed apart in the source
[24] = biological target: T1, WD40 repeat protein 5 truncation mutant …; test: medium-lived events (koff-2), 1 [WDR5]; remark: listed apart in the source
[25] = biological target: T1, WD40 repeat protein 5 truncation mutant …; test: medium-lived events (koff-2), 4 [WDR5]; remark: listed apart in the source

A koff [1] of 87 s⁻¹, a koff [2] of 0.77 s⁻¹ and a koff [3] of 0.79 s⁻¹ were found for MGDRGPEFELGTMLNPHGAARAEVYLRGGSGGSGGSGGS (other) [O(GGS)4 nanopore sensor (adaptor O - MLL4Win - (GGS)4 tether - tFhuA)] in this work. The koff [4] was 0.84 s⁻¹, the koff [5] was 91 s⁻¹ and the koff [6] was 8.9 s⁻¹. It also gave a koff [7] of 0.77 s⁻¹, a koff [8] of 81 s⁻¹ and a koff [9] of 87 s⁻¹. The koff [10] was 9.5 s⁻¹, the koff [11] was 9.9 s⁻¹ and the koff [12] was 9.4 s⁻¹. The koff [13] was 9.9 s⁻¹, the koff [14] was 84 s⁻¹ and the koff [15] was 0.77 s⁻¹.

A koff [16] of 0.77 s⁻¹, a koff [17] of 0.73 s⁻¹ and a koff [18] of 167 s⁻¹ were found for MGDRGPEFELGTMLNPHGAARAEVYLRPAPAPAPAPAPA (other) [O(PA)6 nanopore sensor (adaptor O - MLL4Win - (PA)6 tether - tFhuA)] in this work. It also gave a koff [19] of 178 s⁻¹, a koff [20] of 159 s⁻¹ and a koff [21] of 20 s⁻¹. The koff [22] was 0.77 s⁻¹, the koff [7] was 0.77 s⁻¹ and the koff [23] was 0.78 s⁻¹. For the same binder, the koff [13] was 20 s⁻¹, the koff [24] was 23 s⁻¹ and the koff [25] was 21 s⁻¹.

A koff [9] of 86 s⁻¹ and a koff [13] of 9.2 s⁻¹ were found for MGDRGPEFELGTMLNPHGAARAEVYLRGGSGGS (other) [O(GGS)2 nanopore sensor (adaptor O - MLL4Win - (GGS)2 tether - tFhuA)] in this work.

A koff [9] of 210 s⁻¹ and a koff [13] of 34 s⁻¹ were found for MGDRGPEFELGTMLNPHGAARAEVYLRPAPAPA (other) [O(PA)3 nanopore sensor (adaptor O - MLL4Win - (PA)3 tether - tFhuA)] in this work.

Reference: article PMC10278182 (2023)
